Measured values taken from PMC11481066.

Target: SARS-CoV-2 spike protein receptor binding domain, Delta variant subvariant Δ1 (B.1.617.2) (UniProt P0DTC2)
Assay: BLI
Details: parent: 168.4

ab8 nanobody, wild type E127W
Kd: 0.59 nM
